Assay results published in the supplement of paper PMC11246515.
± gives the standard deviation of the averaged measurements.

Assay: total protein half-life in vivo (active degradation + dilution); higher = more stable protein
[1] = E. coli NCM3722 delta-clpP delta-lon delta-hslV, growth: N-lim chemostat, doubling time 6 h
[2] = wild type E. coli NCM3722, growth: N-lim chemostat, doubling time 12 h
[3] = wild type E. coli NCM3722, growth: P-lim chemostat, doubling time 12 h
[4] = E. coli NCM3722 delta-lon, growth: N-lim chemostat, doubling time 6 h
[5] = E. coli NCM3722 delta-smpB, growth: N-lim chemostat, doubling time 6 h
[6] = wild type E. coli NCM3722, growth: C-lim chemostat, doubling time 3 h
[7] = wild type E. coli NCM3722, growth: C-lim chemostat, doubling time 6 h
[8] = wild type E. coli NCM3722, growth: C-lim chemostat, doubling time 12 h
[9] = wild type E. coli NCM3722, growth: N-lim chemostat, doubling time 6 h
[10] = wild type E. coli NCM3722, growth: P-lim chemostat, doubling time 6 h
[11] = E. coli NCM3722 delta-clpP, growth: N-lim chemostat, doubling time 6 h
[12] = E. coli NCM3722 delta-hslV, growth: N-lim chemostat, doubling time 6 h

Row | Sequence | total protein half-life in vivo [1] [h] | total protein half-life in vivo [2] [h] | total protein half-life in vivo [3] [h] | total protein half-life in vivo [4] [h] | total protein half-life in vivo [5] [h] | total protein half-life in vivo [6] [h] | total protein half-life in vivo [7] [h] | total protein half-life in vivo [8] [h] | total protein half-life in vivo [9] [h] | total protein half-life in vivo [10] [h] | total protein half-life in vivo [11] [h] | total protein half-life in vivo [12] [h]
1 | MNNLPVVRSPWRIVILLLGFTFLYAPMLMLVIYSFNSSKLVTVWAGWSTRWYGELLRDDAMMSAVGLSLTIAACAATAAAILGTIAAVVLVRFGRFRGSNGFAFMITAPLVMPDVITGLSLLLLFVALAHAIGWPADRGMLTIWLAHVTFCTAYVAVVISSRLRELDRSIEEAAMDLGATPLKVFFVITLPMIMPAIISGWLLAFTLSLDDLVIASFVSGPGATTLPMLVFSSVRMGVNPEINALATLILGAVGIVGFIAWYLMARAEKQRIRDIQRARRG [P0AFL1] | 5.96 | > 16 | 10.3 |  |  |  |  |  |  |  |  | 
2 | MAESFTTTNRYFDNKHYPRGFSRHGDFTIKEAQLLERHGYAFNELDLGKREPVTEEEKLFVAVCRGEREPVTEAERVWSKYMTRIKRPKRFHTLSGGKPQVEGAEDYTDSDD [P0ADN2] |  | 5.68 ± 0.092 | 5.53 ± 0.6 | 5.14 ± 0.96 | 3.28 ± 0.088 | 2.19 ± 0.043 | 4.55 ± 0.35 | 5.73 | 3.09 ± 0.15 | 3.14 ± 0.43 |  | 
3 | MATHERRVVFFDLDGTLHQQDMFGSFLRYLLRRQPLNALLVLPLLPIIAIALLIKGRAARWPMSLLLWGCTFGHSEARLQTLQADFVRWFRDNVTAFPLVQERLTTYLLSSDADIWLITGSPQPLVEAVYFDTPWLPRVNLIASQIQRGYGGWVLTMRCLGHEKVAQLERKIGTPLRLYSGYSDSNQDNPLLYFCQHRWRVTPRGELQQLE [P0AD42] | 3.86 ± 0.9 | 4.48 ± 0.64 | 3.39 | 2.07 | 2.7 ± 0.1 | 2.27 | 3.96 | 9.2 ± 0.12 | 2.62 ± 0.42 | 1.82 | 2.84 | 2.383 ± 0.018
4 | MRLAPLYRNALLLTGLLLSGIAAVQAADWPRQITDSRGTHTLESQPQRIVSTSVTLTGSLLAIDAPVIASGATTPNNRVADDQGFLRQWSKVAKERKLQRLYIGEPSAEAVAAQMPDLILISATGGDSALALYDQLSTIAPTLIINYDDKSWQSLLTQLGEITGHEKQAAERIAQFDKQLAAAKEQIKLPPQPVTAIVYTAAAHSANLWTPESAQGQMLEQLGFTLAKLPAGLNASQSQGKRHDIIQLGGENLAAGLNGESLFLFAGDQKDADAIYANPLLAHLPAVQNKQVYALGTETFRLDYYSAMQVLDRLKALF [P0AEL6] | 3.63 ± 0.44 | 10.4 ± 3 |  |  | 5.5 ± 0.95 | > 4 | 5.29 ± 0.068 | 11.5 ± 3.5 | 5.62 ± 0.55 | 6.51 ± 0.24 | 4.68 ± 0.25 | 5.13
5 | MSIPFTRWPEEFARRYREKGYWQDLPLTDILTRHAASDSIAVIDGERQLSYRELNQAADNLACSLRRQGIKPGETALVQLGNVAELYITFFALLKLGVAPVLALFSHQRSELNAYASQIEPALLIADRQHALFSGDDFLNTFVTEHSSIRVVQLLNDSGEHNLQDAINHPAEDFTATPSPADEVAYFQLSGGTTGTPKLIPRTHNDYYYSVRRSVEICQFTQQTRYLCAIPAAHNYAMSSPGSLGVFLAGGTVVLAADPSATLCFPLIEKHQVNVTALVPPAVSLWLQALIEGESRAQLASLKLLQVGGARLSATLAARIPAEIGCQLQQVFGMAEGLVNYTRLDDSAEKIIHTQGYPMCPDDEVWVADAEGNPLPQGEVGRLMTRGPYTFRGYYKSPQHNASAFDANGFYCSGDLISIDPEGYITVQGREKDQINRGGEKIAAEEIENLLLRHPAVIYAALVSMEDELMGEKSCAYLVVKEPLRAVQVRRFLREQGIAEFKLPDRVECVDSLPLTAVGKVDKKQLRQWLASRASA | 5.38 |  | 10.7 |  |  | 2.73 ± 0.086 | 5.32 |  |  |  | 4.77 | 5.82
6 | MAVSAKYDEFNHWWATEGDWVEEPNYRRNGMSGVQCVERNGKKLYVKRMTHHLFHSVRYPFGRPTIVREVAVIKELERAGVIVPKIVFGEAVKIEGEWRALLVTEDMAGFISIADWYAQHAVSPYSDEVRQAMLKAVALAFKKMHSINRQHGCCYVRHIYVKTEGNAEAGFLDLEKSRRRLRRDKAINHDFRQLEKYLEPIPKADWEQVKAYYYAM | 5.26 ± 0.28 |  |  | 1.15 ± 0.09 | 0.534 |  |  |  | 0.927 | 0.144 | 1.09 | 3.57
7 | MSQAKSNKMGVVQLTILTMVNMMGSGIIMLPTKLAEVGTISIISWLVTAVGSMALAWAFAKCGMFSRKSGGMGGYAEYAFGKSGNFMANYTYGVSLLIANVAIAISAVGYGTELLGASLSPVQIGLATIGVLWICTVANFGGARITGQISSITVWGVIIPVVGLCIIGWFWFSPTLYVDSWNPHHAPFFSAVGSSIAMTLWAFLGLESACANTDVVENPERNVPIAVLGGTLGAAVIYIVSTNVIAGIVPNMELANSTAPFGLAFAQMFTPEVGKVIMALMVMSCCGSLLGWQFTIAQVFKSSSDEGYFPKIFSRVTKVDAPVQGMLTIVIIQSGLALMTISPSLNSQFNVLVNLAVVTNIIPYILSMAALVIIQKVANVPPSKAKVANFVAFVGAMYSFYALYSSGEEAMLYGSIVTFLGWTLYGLVSPRFELKNKHG [P0AAF1] | 6.73 ± 1.1 | > 16 |  |  | 5.34 ± 1 |  | > 8 | > 16 | 4.53 |  |  | 
8 | MTLTRREFIKHSGIAAGALVVTSAAPLPAWAEEKGGKILTAGRWGAMNVEVKDGKIVSSTGALAKTIPNSLQSTAADQVHTTARIQHPMVRKSYLDNPLQPAKGRGEDTYVQVSWEQALKLIHEQHDRIRKANGPSAIFAGSYGWRSSGVLHKAQTLLQRYMNLAGGYSGHSGDYSTGAAQVIMPHVVGSVEVYEQQTSWPLILENSQVVVLWGMNPLNTLKIAWSSTDEQGLEYFHQLKKSGKPVIAIDPIRSETIEFFDDNATWIAPNMGTDVALMLGIAHTLMTQGKHDKVFLEKYTTGYPQFEEYLTGKSDNTPKSAVWAAEITGVPEAQIVKLAELMAANRTMLMAGWGIQRQQYGEQKHWMLVTLAAMLGQIGTPGGGFGFSYHYSNGGNPTRVGGVLPEMSAAIAGHASEAADDGGMTAIPVARIVDALENPGGKYQHNGKEQTYPNIKMIWWAGGGNFTHHQDTNRLIKAWQKPEMIVVSECYWTAAAKHADIVLPITTSFERNDLTMTGDYSNQHIVPMKQAVAPQFEARNDFDVFADLAELLKPGGKEIYTEGKDEMAWLKFFYDAAQKGARAQRVTMPMFNAFWQQNKLIEMRHSEKNEQYVRYGDFRADPVKNALGTPSGKIEIYSKTLEKFGYKDCPAHPTWLAPDEWKGTADEKQLQLLTAHPAHRLHSQLNYAELRKKYAIADREPITIHTEDAARFGIANGDLVRVWNKRGQILTGAVVTDGIKKGVVCVHEGAWPDLENGLCKNGSANVLTADIPSSQLANACAGNSALVYIEKYTGNAPKLTAFDQPAVQA | 5.67 ± 0.3 | 8.13 |  | 5.13 |  |  | 4.75 ± 0.64 | 11.5 ± 6.1 |  |  |  | 
9 | MSQSEFDSALPNGIGLAPYLRMKQEGMTENESRIVEWLLKPGNLSCAPAIKDVAEALAVSEAMIVKVSKLLGFSGFRNLRSALEDYFSQSEQVLPSELAFDEAPQDVVNKVFNITLRTIMEGQSIVNVDEIHRAARFFYQARQRDLYGAGGSNAICADVQHKFLRIGVRCQAYPDAHIMMMSASLLQEGDVVLVVTHSGRTSDVKAAVELAKKNGAKIICITHSYHSPIAKLADYIICSPAPETPLLGRNASARILQLTLLDAFFVSVAQLNIEQANINMQKTGAIVDFFSPGALK [P0ACS7] | 6.33 ± 0.37 | 11.3 ± 1.8 | 12.5 ± 1.1 | 5.71 | 5.56 ± 0.55 | 3.07 ± 0.4 | 6.86 ± 0.23 | 14.6 ± 1.1 | 5.77 ± 0.44 | 6.09 ± 0.2 | 6 ± 0.24 | 5.5 ± 0.74
